Patent publication US20190233494A1 (Sanofi, published 2019)
Starred links: 1 amine or outer side, 2 acyl side, 3 side chain; linkers in the order of their positions; H or OH if unused. Non-standard residues stand in square brackets, D forms with d. Groups on a side chain read outwards from the residue. *: point of attachment. TTDS = 4-[3-[2-[2-(3-aminopropoxy)ethoxy]ethoxy]propylamino]-4-oxo-butanoyl; Trp(5-Cl) = N[C@@H](Cc1c[nH]c2ccc(Cl)cc12)C(=O)O; γGlu = O=C(O)[C@H](CCC(=O)[*:2])N[*:1]; Stearoyl = CCCCCCCCCCCCCCCCCC(=O)*; Palmitoyl = CCCCCCCCCCCCCCCC(=O)*; αMeK = C[C@](N)(CCCCN)C(=O)O; AEEA = NCCOCCOCC(=O)O; Aib = CC(C)(N)C(=O)O

Biological target: T1, RXFP1 receptor (endogenous, on OVCAR5 cells) (UniProt Q9HBX9 1-757, limits assumed)
T1 sequence (looked up): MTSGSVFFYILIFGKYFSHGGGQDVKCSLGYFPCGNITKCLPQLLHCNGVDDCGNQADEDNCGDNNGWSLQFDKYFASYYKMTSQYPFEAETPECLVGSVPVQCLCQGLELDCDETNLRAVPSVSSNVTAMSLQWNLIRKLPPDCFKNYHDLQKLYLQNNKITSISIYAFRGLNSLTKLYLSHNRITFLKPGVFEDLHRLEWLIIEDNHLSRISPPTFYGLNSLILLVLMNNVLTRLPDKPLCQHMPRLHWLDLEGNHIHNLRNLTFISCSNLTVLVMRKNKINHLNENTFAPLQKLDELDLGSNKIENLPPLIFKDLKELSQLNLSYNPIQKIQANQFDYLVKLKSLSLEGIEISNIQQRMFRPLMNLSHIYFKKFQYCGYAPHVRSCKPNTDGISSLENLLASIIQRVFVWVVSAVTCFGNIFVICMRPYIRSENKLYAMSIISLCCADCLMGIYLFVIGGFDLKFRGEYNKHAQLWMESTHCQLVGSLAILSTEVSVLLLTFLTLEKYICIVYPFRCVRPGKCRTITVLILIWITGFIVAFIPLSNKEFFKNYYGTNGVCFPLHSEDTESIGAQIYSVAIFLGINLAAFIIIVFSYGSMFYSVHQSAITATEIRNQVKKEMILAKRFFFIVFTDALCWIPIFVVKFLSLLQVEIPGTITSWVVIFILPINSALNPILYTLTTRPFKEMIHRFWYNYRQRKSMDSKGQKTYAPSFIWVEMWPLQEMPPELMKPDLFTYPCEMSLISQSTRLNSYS
Assay: cell-based or functional assay

In the case of Ac-LEGREKVRAK(Ac)I[Aib][Aib]EGK([TTDS-TTDS-TTDS-γGlu-γGlu-γGlu-Palmitoyl])SKWS[Aib]RAK-NH2 [peptide of SEQ ID NO: 73], the “EC50 (nM), OVCAR 5 cells (cAMP)” value is reported as 0.2 nM and the “EMax, OVCAR 5 cells (cAMP)” value is reported as 95%.

In the case of Ac-LEGRERVRAK(Ac)I[Aib][Aib]EGK([TTDS-TTDS-TTDS-γGlu-γGlu-γGlu-Palmitoyl])STFS[Aib]RRK(Ac)-NH2 [peptide of SEQ ID NO: 76], the “EC50 (nM), OVCAR 5 cells (cAMP)” value is reported as 0.18 nM and the “EMax, OVCAR 5 cells (cAMP)” value is reported as 96%.

In the case of Ac-LEGRERVRAK(Ac)I[Aib][Aib]EGK([TTDS-TTDS-TTDS-γGlu-γGlu-γGlu-Palmitoyl])ST[Trp(5-Cl)]S[Aib]RRK(Ac)-NH2 [peptide of SEQ ID NO: 80], the “EC50 (nM), OVCAR 5 cells (cAMP)” value is reported as 0.63 nM and the “EMax, OVCAR 5 cells (cAMP)” value is reported as 93%.

B1: peptide of SEQ ID NO: 5 (peptide)
peptide: Ac-LEGREKVRAK(Ac)I[Aib][Aib]EGK([AEEA-AEEA-AEEA-AEEA-γGlu-γGlu-γGlu-Palmitoyl])STWS[Aib]RKK(Ac)-NH2
SMILES: CCCCCCCCCCCCCCCC(=O)N[C@@H](CCC(=O)N[C@@H](CCC(=O)N[C@@H](CCC(=O)NCCOCCOCC(=O)NCCOCCOCC(=O)NCCOCCOCC(=O)NCCOCCOCC(=O)NCCCC[C@H](NC(=O)CNC(=O)[C@H](CCC(=O)O)NC(=O)C(C)(C)NC(=O)C(C)(C)NC(=O)[C@@H](NC(=O)[C@H](CCCCNC(C)=O)NC(=O)[C@H](C)NC(=O)[C@H](CCCNC(=N)N)NC(=O)[C@@H](NC(=O)[C@H](CCCCN)NC(=O)[C@H](CCC(=O)O)NC(=O)[C@H](CCCNC(=N)N)NC(=O)CNC(=O)[C@H](CCC(=O)O)NC(=O)[C@H](CC(C)C)NC(C)=O)C(C)C)[C@@H](C)CC)C(=O)N[C@@H](CO)C(=O)N[C@H](C(=O)N[C@@H](Cc1c[nH]c2ccccc12)C(=O)N[C@@H](CO)C(=O)NC(C)(C)C(=O)N[C@@H](CCCNC(=N)N)C(=O)N[C@@H](CCCCN)C(=O)N[C@@H](CCCCNC(C)=O)C(N)=O)[C@@H](C)O)C(=O)O)C(=O)O)C(=O)O
For B1, the “EC50 (nM), OVCAR 5 cells (cAMP)” value was 9.1 nM and the “EMax, OVCAR 5 cells (cAMP)” value was 85%.

With Ac-LEGREKVRAK(Ac)I[Aib][Aib]EGK([TTDS-TTDS-TTDS-γGlu-γGlu-γGlu-Palmitoyl])STWS[Aib]RK(Ac)K-NH2 [peptide of SEQ ID NO: 68] the “EC50 (nM), OVCAR 5 cells (cAMP)” value was 0.88 nM and the “EMax, OVCAR 5 cells (cAMP)” value was 98%.

Ac-LEGREKVRAK(Ac)I[Aib][Aib]EGK([TTDS-TTDS-TTDS-γGlu-γGlu-γGlu-γGlu-Palmitoyl])STWS[Aib]RKK(Ac)-NH2 [peptide of SEQ ID NO: 62] was tested, and the “EC50 (nM), OVCAR 5 cells (cAMP)” value was 0.6 nM and the “EMax, OVCAR 5 cells (cAMP)” value was 98%.

For Ac-LEGREKVRAK(Ac)I[Aib][Aib]EGK([TTDS-TTDS-TTDS-γGlu-γGlu-γGlu-Palmitoyl])SKFS[Aib]RKK(Ac)-NH2 [peptide of SEQ ID NO: 79], the “EC50 (nM), OVCAR 5 cells (cAMP)” value was 0.45 nM and the “EMax, OVCAR 5 cells (cAMP)” value was 95%.

For Ac-LEGREKVRAK(Ac)I[Aib][Aib]EGK([TTDS-TTDS-TTDS-γGlu-γGlu-γGlu-Palmitoyl])SRWS[Aib]RKK(Ac)-NH2 [peptide of SEQ ID NO: 64], the “EC50 (nM), OVCAR 5 cells (cAMP)” value was 0.52 nM and the “EMax, OVCAR 5 cells (cAMP)” value was 95%.

With Ac-LEGREKVRAK(Ac)I[Aib][Aib]EGK([TTDS-TTDS-TTDS-γGlu-γGlu-γGlu-Palmitoyl])STWS[Aib]RK(Ac)R-NH2 [peptide of SEQ ID NO: 69] the “EC50 (nM), OVCAR 5 cells (cAMP)” value was 0.78 nM and the “EMax, OVCAR 5 cells (cAMP)” value was 97%.

Ac-LEGREKVRAK(Ac)I[Aib][Aib]EGK([TTDS-TTDS-TTDS-γGlu-γGlu-γGlu-Palmitoyl])STWS[Aib]RKK(Ac)-NH2 [peptide of SEQ ID NO: 1] was tested, and the “EC50 (nM), OVCAR 5 cells (cAMP)” value was 1.5 nM and the “EMax, OVCAR 5 cells (cAMP)” value was 99%.

In the case of Ac-K(Ac)EGREKVRAK(Ac)I[Aib][Aib]EGK([TTDS-TTDS-TTDS-γGlu-γGlu-γGlu-Palmitoyl])STFS[αMeK]RAK(Ac)-NH2 [peptide of SEQ ID NO: 81], the “EC50 (nM), OVCAR 5 cells (cAMP)” value is reported as 0.16 nM and the “EMax, OVCAR 5 cells (cAMP)” value is reported as 98%.

Ac-LEGREKVRAK(Ac)I[Aib][Aib]EGK([TTDS-TTDS-TTDS-TTDS-γGlu-γGlu-γGlu-Palmitoyl])STFS[αMeK]RAK(Ac)-NH2 [peptide of SEQ ID NO: 78] was tested, and the “EC50 (nM), OVCAR 5 cells (cAMP)” value was 0.18 nM and the “EMax, OVCAR 5 cells (cAMP)” value was 99%.

With Ac-LEGREKVRAK(Ac)I[Aib][Aib]EGK([TTDS-TTDS-TTDS-γGlu-γGlu-γGlu-Palmitoyl])STWS[Aib]RAK-NH2 [peptide of SEQ ID NO: 71] the “EC50 (nM), OVCAR 5 cells (cAMP)” value was 0.36 nM and the “EMax, OVCAR 5 cells (cAMP)” value was 95%.

For Ac-LEGREKVRK(Ac)QI[Aib][Aib]EGK([TTDS-TTDS-TTDS-γGlu-γGlu-γGlu-Palmitoyl])STWS[Aib]RKK(Ac)-NH2 [peptide of SEQ ID NO: 65], the “EC50 (nM), OVCAR 5 cells (cAMP)” value was 1.19 nM and the “EMax, OVCAR 5 cells (cAMP)” value was 95%.

With Ac-LEGREKVRAK(Ac)I[Aib][Aib]EGK([TTDS-TTDS-TTDS-γGlu-γGlu-γGlu-Stearoyl])STFS[αMeK]RAK(Ac)-NH2 [peptide of SEQ ID NO: 7] the “EC50 (nM), OVCAR 5 cells (cAMP)” value was 0.07 nM and the “EMax, OVCAR 5 cells (cAMP)” value was 95%.

For Ac-LEGREKVRAK(Ac)I[Aib][Aib]EGK([TTDS-TTDS-TTDS-γGlu-γGlu-γGlu-Palmitoyl])SQWS[Aib]RKK(Ac)-NH2 [peptide of SEQ ID NO: 63], the “EC50 (nM), OVCAR 5 cells (cAMP)” value was 1.45 nM and the “EMax, OVCAR 5 cells (cAMP)” value was 97%.

With Ac-LEGREKVRAK(Ac)I[Aib][Aib]EGK([TTDS-TTDS-γGlu-γGlu-γGlu-Stearoyl])STWS[Aib]RKK(Ac)-NH2 [peptide of SEQ ID NO: 6] the “EC50 (nM), OVCAR 5 cells (cAMP)” value was 0.27 nM and the “EMax, OVCAR 5 cells (cAMP)” value was 95%.

In the case of Ac-LEGREKVRAK(Ac)I[Aib]IEGK([TTDS-TTDS-TTDS-TTDS-γGlu-γGlu-γGlu-Palmitoyl])STWS[Aib]RKK(Ac)-NH2 [peptide of SEQ ID NO: 74], the “EC50 (nM), OVCAR 5 cells (cAMP)” value is reported as 0.54 nM and the “EMax, OVCAR 5 cells (cAMP)” value is reported as 94%.

For Ac-LEGREKVRAK(Ac)I[Aib]IEGK([TTDS-TTDS-TTDS-γGlu-γGlu-γGlu-Palmitoyl])STWS[Aib]RKK(Ac)-NH2 [peptide of SEQ ID NO: 70], the “EC50 (nM), OVCAR 5 cells (cAMP)” value was 1.34 nM and the “EMax, OVCAR 5 cells (cAMP)” value was 94%.

Ac-LEGRERVRAK(Ac)I[Aib][Aib]EGK([TTDS-TTDS-TTDS-TTDS-γGlu-γGlu-γGlu-Palmitoyl])STWS[Aib]RRK(Ac)-NH2 [peptide of SEQ ID NO: 75] was tested, and the “EC50 (nM), OVCAR 5 cells (cAMP)” value was 0.19 nM and the “EMax, OVCAR 5 cells (cAMP)” value was 97%.

With Ac-LEGREKVRAK(Ac)I[Aib][Aib]EGK([TTDS-TTDS-γGlu-γGlu-γGlu-Stearoyl])STFS[Aib]RKK(Ac)-NH2 [peptide of SEQ ID NO: 60] the “EC50 (nM), OVCAR 5 cells (cAMP)” value was 0.15 nM and the “EMax, OVCAR 5 cells (cAMP)” value was 95%.

For Ac-LEGREKVRAK(Ac)I[Aib][Aib]EGK([TTDS-TTDS-TTDS-TTDS-γGlu-γGlu-γGlu-Stearoyl])STFS[Aib]RKK(Ac)-NH2 [peptide of SEQ ID NO: 59], the “EC50 (nM), OVCAR 5 cells (cAMP)” value was 0.09 nM and the “EMax, OVCAR 5 cells (cAMP)” value was 99%.

In the case of Ac-LEGREKVRAK(Ac)I[Aib][Aib]EGK([TTDS-TTDS-TTDS-γGlu-γGlu-γGlu-Palmitoyl])STWK(Ac)[Aib]RAK(Ac)-NH2 [peptide of SEQ ID NO: 66], the “EC50 (nM), OVCAR 5 cells (cAMP)” value is reported as 6.31 nM and the “EMax, OVCAR 5 cells (cAMP)” value is reported as 93%.

With Ac-LEGREKVRAK(Ac)I[Aib][Aib]EGK([TTDS-TTDS-TTDS-γGlu-γGlu-γGlu-Stearoyl])STFS[Aib]RKK(Ac)-NH2 [peptide of SEQ ID NO: 61] the “EC50 (nM), OVCAR 5 cells (cAMP)” value was 0.1 nM and the “EMax, OVCAR 5 cells (cAMP)” value was 97%.

In the case of Ac-LEGRERVRAK(Ac)I[Aib][Aib]EGK([TTDS-TTDS-TTDS-TTDS-γGlu-γGlu-γGlu-Palmitoyl])STFS[Aib]RRK(Ac)-NH2 [peptide of SEQ ID NO: 77], the “EC50 (nM), OVCAR 5 cells (cAMP)” value is reported as 0.11 nM and the “EMax, OVCAR 5 cells (cAMP)” value is reported as 98%.

Ac-LEGRERVRAK(Ac)I[Aib][Aib]EGK([TTDS-TTDS-TTDS-γGlu-γGlu-γGlu-Palmitoyl])STWS[Aib]RKK(Ac)-NH2 [peptide of SEQ ID NO: 67] was tested, and the “EC50 (nM), OVCAR 5 cells (cAMP)” value was 0.48 nM and the “EMax, OVCAR 5 cells (cAMP)” value was 95%.

Ac-LEGREKVRAK(Ac)I[Aib][Aib]EGK([TTDS-TTDS-TTDS-γGlu-γGlu-γGlu-Palmitoyl])STF[Aib]RRAK(Ac)-NH2 [peptide of SEQ ID NO: 72] was tested, and the “EC50 (nM), OVCAR 5 cells (cAMP)” value was 0.56 nM and the “EMax, OVCAR 5 cells (cAMP)” value was 91%.
